The record followed here is patent publication US20240228568A1 (CENTRO DE INGENIER A GEN TICA Y BIOTECNOLOG A, published 2024).

Where no end group is shown, it is not given here. [ ]: non-standard residue; d: D form.

Test [1] deals with T1, IL-15 receptor subunit on CTLL-2 cells.
T1 sequence (Q60819 whole entry, species assumed, looked up): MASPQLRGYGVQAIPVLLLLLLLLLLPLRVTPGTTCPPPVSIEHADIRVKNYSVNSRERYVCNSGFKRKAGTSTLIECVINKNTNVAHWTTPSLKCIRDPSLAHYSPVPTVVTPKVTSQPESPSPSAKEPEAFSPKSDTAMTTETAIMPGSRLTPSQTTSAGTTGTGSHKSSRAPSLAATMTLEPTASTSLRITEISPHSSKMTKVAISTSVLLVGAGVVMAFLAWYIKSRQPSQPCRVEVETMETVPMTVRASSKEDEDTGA
In words: cell-based or functional assay.

Test [2] has the same target. Kind of test: cell-based or functional assay. This is another data set of the same source.

B1: Peptide 1 (peptide)
peptide: KVTAMKCFLL
modifications: not fully specified (C-terminus)
For B1, the “IC50 in the CTLL-2 cell proliferation assay” value (“IC50” for short) in test [1] came to 130 µM.

B2: Peptide 5 (peptide)
peptide: KVT[dA]MKCFLL-NH2
As to B2, the “IC50” value in test [1] amounted to 28 µM.

B3: Peptide 12 (peptide)
peptide: KVT[dA]MKCFLL-NH2
modifications: also: disulfide-linked homodimer through the Cys
As to B3, in test [1], the “IC50” value was found to be 8 µM. For the same molecule, in test [2], the “antagonist effect on IL-15-induced proliferation, fold against Peptide 1” value was found to be 16 times and the “antagonist effect on IL-15-induced proliferation, fold against Peptide 5” value is 3 times.
